# Data as given in patent publication US20260242478A1 (published 2026).
# Where no end group is shown, it is not given here.
# Assays:
# 006 PSMA Fab [1] = target: T1, 006 PSMA Fab (biotinylated (site not given)); assay: clonal phage ELISA, biotinylated PSMA Fab on neutravidin plate, anti-M13 HRP detection;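 further: crude clonal phage supernatants added to wells pretreated with blocking buffer either with or without PSMA antigen, bound phage read after washing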
# T1 construct: Biotinylated PSMA Fab captured on neutravidin coated plates for the clonal phage ELISA; also called Anti-PSMA Fab
# 006 PSMA Fab [2] = target: T1, 006 PSMA Fab; assay: clonal phage ELISA on plate-bound PSMA Fab, competitor: PSMA antigen pre-incubated in the wells
# Procedure: (§1) Clonal phage were harvested as crude supernatants and screened via standard ELISAs. […] Prior to the addition of clonal phage. wells were incubated with blocking buffer and PSMA antigen or blocking buffer alone. Without washing or aspirating, clonal phage supernatants were then added to the wells and incubated for a short time. Wells were then washed followed by detection of bound phage using a horse radish conjugated anti-M13 antibody.
# PSMA Fab (006 PSMA Fab) [3] = target: T2, PSMA Fab (006 PSMA Fab); assay: clonal phage ELISA; biotinylated PSMA Fab on neutravidin plate, blocking buffer alone; anti-M13 HRP detection;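 further: crude clonal phage supernatants added without washing to wells pretreated with blocking buffer with or without PSMA antigen, short incubation, then washed before detecting bound phage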
# T2 construct: also called Anti-PSMA Fab; anti-PSMA Fab
# Procedure: as §1
# PSMA Fab (006 PSMA Fab) [4] = target: T2, PSMA Fab (006 PSMA Fab); assay: clonal phage ELISA; biotinylated PSMA Fab on neutravidin plate, wells pre-incubated with PSMA antigen as competitor; anti-M13 HRP detection;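 further: crude clonal phage supernatants added to antigen-treated wells without a wash, incubated briefly, then bound phage read out via horse radish–conjugated anti-M13 antibody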
# Procedure: as §1
Binder,"Phage binding ELISA signal, Anti-PSMA Fab (006 PSMA Fab [1])","Phage binding ELISA signal, Anti-PSMA Fab in presence of PSMA (006 PSMA Fab [2])","Phage binding ELISA signal, Anti-PSMA Fab (PSMA Fab (006 PSMA Fab) [3])","Phage binding ELISA signal, Anti-PSMA Fab in presence of PSMA antigen (PSMA Fab (006 PSMA Fab) [4])"
"IPKWCTPSWMCEWV (cysteine pairing not given here; also: displayed on phage as fusion to pIII, pIII and linker sequence not given here, not shown: fused to pIII of the bacteriophage) [Phage-2504]",1.2,0.0916,,
"EVKWCIPDWMCSVI (cysteine pairing not given here; also: fused to phage pIII, linker and fusion site not given here, not shown: fused to pIII of the bacteriophage) [Phage-2510]",1.19,0.0782,,
DNKWCIPEWMCFAS (Row prints D N K W - I - E - - - F A S) [Phage-2521],,,1.18,0.0796
EIKWCTPAWMCAIN (Row prints E I K W - T - A - - - - I N) [Phage-2514],,,1.18,0.0972
LTQWCIPQWMCEGS (Row prints L T Q W - I - Q - - - E - S) [Phage-2515],,,1.18,0.0537
"VQMLCIPAWMCGME (cysteine pairing not given here; also: displayed on phage as fusion to pIII, pIII and linker sequence not given here, not shown: fused to pIII of the bacteriophage) [Phage-2506]",1.2,0.107,,
"SETWCIPAWMCLDG (cysteine pairing not given here; also: displayed on phage as fusion to pIII, pIII and linker sequence not given here, not shown: fused to pIII of the bacteriophage) [Phage-2503]",1.2,0.0745,,
"SDKWCIPVWMCEES (cysteine pairing not given here; also: displayed on phage as fusion to pIII, pIII and linker sequence not given here, not shown: fused to pIII of the bacteriophage) [Phage-2501]",1.21,0.0874,,
VPKWCTPAWMCTGL (Row prints V P K W - T - A - - - T - L) [Phage-2516],,,1.18,0.0721
VDNWCTPMWMCAWI (Row prints V D N W - T - M - - - - W I) [Phage-2517],,,1.18,0.109
SLELCRPEWMCVGF (Row prints S L E - - R - E - - - V - -) [Phage-2513],,,1.19,0.0955
HERSCIPAWMCWRQ (Row prints H E R S - I - A - - - W R Q) [Phage-2522],,,1.18,0.0706
PIPLCIPLWMCEER (Row prints P I P - - I - L - - - E E R) [Phage-2520],,,1.18,0.0838
"TYKMCIPAWKCAVS (cysteine pairing not given here; also: fused to phage pIII, linker and fusion site not given here, not shown: fused to pIII of the bacteriophage) [Phage-2509]",1.19,0.0792,,
IDPRCIPEWMCIGY (Row prints - D P R - I - E - - - I - Y) [Phage-2518],,,1.18,0.0633
"LGKWCIPDWMCSGL (cysteine pairing not given here; also: displayed on phage as fusion to pIII, pIII and linker sequence not given here, not shown: fused to pIII of the bacteriophage) [Phage-2505]",1.2,0.144,,
VPIWCTPEWMCSGF (Row prints V P I W - T - E - - - S - -) [Phage-2519],,,1.18,0.0879
IVRWCTPEWMCVGF (Row prints - V R W - T - E - - - V - -) [Phage-2523],,,1.18,0.0674
AVKWCTPAWMCSGF (Row prints A V K W - T - A - - - S - -) [Phage-2524],,,1.18,0.0682
"HPSWCTPAWMCQGF (cysteine pairing not given here; also: fused to phage pIII, linker and fusion site not given here, not shown: fused to pIII of the bacteriophage) [Phage-2508]",1.2,0.0911,,
LGKMCIPLWMCDGL (Row prints L G K M - I - L - - - D - L) [Phage-2512],,,1.19,0.0573
"LVKLCSPEWMCVGM (cysteine pairing not given here; also: fused to phage pIII, linker and fusion site not given here, not shown: fused to pIII of the bacteriophage) [Phage-2511]",1.19,0.0667,,
"VERLCKPLWMCQER (cysteine pairing not given here; also: fused to phage pIII, linker and fusion site not given here, not shown: fused to pIII of the bacteriophage) [Phage-2507]",1.2,0.0748,,
"EPKMCTPSWMCRGF (cysteine pairing not given here; also: displayed on phage as fusion to pIII, pIII and linker sequence not given here, not shown: fused to pIII of the bacteriophage) [Phage-2502]",1.2,0.0691,,
